B1: SNNP peptide of SNAP-25 (peptide)
peptide: RRMLQLVEESK
notes: also called SNN peptide; source: synthetic peptide
B2: SNCP peptide of SNAP-25 (LOOP-SNC site) (peptide)
peptide: EREQMAISGGFIRR
notes: also called SNC peptide; LOOP-SNC peptide; source: synthetic peptide

Target: T1, heat shock cognate 70 (Hsc70), human constitutively expressed Hsp70, wild type (human, UniProt P11142 1-646)
T1 construct: Hsc70, the human constitutively expressed Hsp70; also called WT Hsc70; His-Hsc70 (before cleavage); source: E. coli Rosetta (DE3), purified (Ni-NTA, TEV cleavage, second Ni-NTA)
Assay: NMR titration; methyl-TROSY (1H-13C HMQC) spectra of Ile δ1-13CH3-labeled Hsc70 (40 μM) without and with unlabeled peptide; 10 mM potassium phosphate pD 7.4, 5 mM DTT, D2O, 25 °C, 600 MHz
Details: both partners purified

T1 sequence (P11142 whole entry): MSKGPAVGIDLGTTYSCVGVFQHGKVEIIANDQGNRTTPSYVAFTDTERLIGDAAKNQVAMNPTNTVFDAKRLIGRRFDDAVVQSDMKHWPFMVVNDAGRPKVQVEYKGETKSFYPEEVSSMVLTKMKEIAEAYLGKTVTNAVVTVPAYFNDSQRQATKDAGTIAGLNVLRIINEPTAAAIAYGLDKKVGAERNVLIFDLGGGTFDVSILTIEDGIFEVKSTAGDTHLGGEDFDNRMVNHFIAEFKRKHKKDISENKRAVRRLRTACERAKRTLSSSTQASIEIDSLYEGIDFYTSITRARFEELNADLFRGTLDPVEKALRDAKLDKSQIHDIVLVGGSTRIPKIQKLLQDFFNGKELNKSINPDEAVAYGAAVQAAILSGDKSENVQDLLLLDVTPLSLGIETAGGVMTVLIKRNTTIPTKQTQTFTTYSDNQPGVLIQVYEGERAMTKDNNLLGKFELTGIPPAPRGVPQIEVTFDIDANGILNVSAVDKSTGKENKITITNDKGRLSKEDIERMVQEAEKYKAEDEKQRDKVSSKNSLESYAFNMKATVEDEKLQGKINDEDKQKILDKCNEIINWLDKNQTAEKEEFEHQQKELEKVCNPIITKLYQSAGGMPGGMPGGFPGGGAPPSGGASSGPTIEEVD

| Binder | binding result |
| --- | --- |
| B1 | binds |
| B2 | binds |

Source: publication PMC11697113, “The Hsc70 system maintains the synaptic SNARE protein SNAP-25 in an assembly-competent state and delays its aggregation [image fx2.gif]” (The Journal of Biological Chemistry, 2024)
